Bridges are numbered along the chain shown (N, C = ends). Where no end group is shown, it is not given here.
T1: Extracellular IL-6R (interleukin-6 receptor) (UniProt P08887 20-365)
T1 construct: also called soluble extracellular IL-6R; source: bought: PeproTech
T1 sequence: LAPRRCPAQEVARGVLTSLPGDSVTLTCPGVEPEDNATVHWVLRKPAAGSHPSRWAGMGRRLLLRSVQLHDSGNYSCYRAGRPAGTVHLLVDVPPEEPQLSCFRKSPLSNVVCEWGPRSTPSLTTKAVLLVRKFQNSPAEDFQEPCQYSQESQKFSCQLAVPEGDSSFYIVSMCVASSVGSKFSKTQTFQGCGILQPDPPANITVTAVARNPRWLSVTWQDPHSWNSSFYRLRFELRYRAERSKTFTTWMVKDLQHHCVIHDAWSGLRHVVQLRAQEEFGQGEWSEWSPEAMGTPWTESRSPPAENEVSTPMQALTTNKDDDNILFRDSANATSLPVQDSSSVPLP

B1: 14-L1 (peptide)
peptide: LVCYAPLPYTPGTLETGPDDFTCV
modifications: disulfide 3-23
B2: R10-13 (designed binder)
chain: LVCYQLLACRPGTLETCPDDFTCVATRHTLGHNLTQYCSHAHAIPTPRARTGCCQTDKCNG
B3: R10-15 (designed binder)
chain: LVCYQLLACRPGTLETCPDDFTCVATRHTLGHNLTQYCSHAYAIPACETPASCCQTDKCNG

What was measured:
[1] = biological target: Extracellular IL-6R (interleukin-6 receptor) (UniProt P08887)
[2] = biological target: T1, Extracellular IL-6R (interleukin-6 …); experiment: ELISA; competitive inhibition: 45 nM biotinylated IL-6 and 1 nM-2 μM protein/peptide with IL-6R coated beads (350 nM) in PBS-BSA, 25°C, 1 h; detected with SA-HRP; details: both partners purified
[3] = biological target: T1, Extracellular IL-6R (interleukin-6 …); experiment: ELISA; […] (200 nM), 30 min; […]; details: both partners purified
[4] = biological target: T1, Extracellular IL-6R (interleukin-6 …); experiment: cell-based or functional assay

| Binder | EC50 (ED50), proliferation of DS-1 cells in the absence of IL-6 [1] [nM] | IC50 [2] [nM] | Kd [3] [nM] | IC50, inhibition of the IL-6 dependent proliferation of DS-1 cells (IL-6 with IL-6R) [4] [nM] |
| --- | --- | --- | --- | --- |
| B1 | 30 | – | – | – |
| B2 | – | 113 ± 7 | 48 ± 8 | 1400 |
| B3 | – | 102 ± 13 | 115 ± 9 | – |

— article PMC3024951 (Molecular Brain, 2011)
